# Laboratory results reported in article PMC11424477 (2024).
# B1: fibrin (protein)
# chain 1: ADSGEGDFLAEGGGVR
# chain 2: QGVNDNEEGFFSAR
# chain 3: YVATRDNCCILDERFGSYCPTTCGIADFLSTYQTKVDKDLQSLEDILHQVENKTSEVKQLIKAIQLTYNPDESSKPNMIDAATLKSRKMLEEIMKYEASILTHDSSIRYLQEIYNSNNQKIVNLKEKVAQLEAQCQEPCKDTVQIHDITGKDCQDIANKGAKQSGLYFIKPLKANQQFLVYCEIDGSGNGWTVFQKRLDGSVDFKKNWIQYKEGFGHLSPTGTTEFWLGNEKIHLISTQSAIPYALRVELEDWNGRTSTADYAMFKVGPEADKYRLTYAYFAGGDAGDAFDGFDFGDDPSDKFFTSHNGMQFSTWDNDNDKFEGNCAEQDGSGWWMNKCHAGHLNGVYYQGGTYSKASTPNGYDNGIIWATWKTRWYSMKKTTMKIIPFNRLTIGEGQQHHLGGAKQVRPEHPAETEYDSLYPEDDL
# Molecular target: spike (trimeric, Wuhan) (SARS-CoV-2, UniProt P0DTC2)
binder,measurement,value
B1,Kd,390 nM
